The values that follow come from patent US6468532 (Genentech, dated 2002).

Substitutions are numbered along the chain they refer to.

Holding throughout (assay): cell-based or functional assay
In assay [1] the target is T1, rhesus IL-8 (rhesus, UniProt P67813 23-101, limits assumed).
T1 sequence (looked up): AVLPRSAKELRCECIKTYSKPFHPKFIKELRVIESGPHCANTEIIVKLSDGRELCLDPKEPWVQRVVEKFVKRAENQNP

Assay [2] concerns the target human monomeric IL-8 (human).
The target of assay [3] is T2, recombinant human IL-8, (ser-IL-8)72 (human, UniProt P10145 28-99).
T2 sequence (looked up): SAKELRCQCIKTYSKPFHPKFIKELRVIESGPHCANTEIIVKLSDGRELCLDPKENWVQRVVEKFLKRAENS

The target of assay [4] is T3, rabbit IL-8 (rabbit, UniProt P19874 23-101, limits assumed).
T3 sequence (looked up): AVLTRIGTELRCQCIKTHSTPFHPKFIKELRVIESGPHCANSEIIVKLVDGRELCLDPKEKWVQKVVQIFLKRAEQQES

B1: humanized 6G425 F(ab)-9 (humanized 6G4V11 Fab) (Fab, V domains shown)
VH: EVQLVQSGGGLVQPGGSLRLSCAASGYSFSSHYMHWVRQAPGKGLEWVGYIDPSNGETTYNQKFKGRFTLSRDNSKNTAYLQMNSLRAEDTAVYYCARGDYRYNGDWFFDVWGQGTLVTVSS
VL: DIQMTQSPSSLSASVGDRVTITCRSSQSLVHGIGNTYLHWYQQKPGKAPKLLIYKVSNRFSGVPSRFSGSGSGTDFTLTISSLQPEDFATYYCSQSTHVPLTFGQGTKVEIKR
On to B1, for which the “IC50, IL-8 mediated neutrophil chemotaxis” value in assay [1] is approximately 22 nM; in assay [2] it was approximately 15 nM.

B2: 6G4V11N35A Fab' modified with 40 kD linear PEG-maleimide (Fab, V domains shown)
VH: B1 VH
VL: B1 VL with N35A
modifications: 40 kD linear methoxy-PEG-maleimide on the free cysteine in the hinge region
As to B2, the “IC50, IL-8 mediated PMN chemotaxis” value in assay [3] turned out to be 3.7 nM.

B3: humanized 6G425 F(ab)-8 (Fab, V domains shown)
VH: B1 VH with Q6E, R38K
VL: B1 VL
For B3, the “IC50, IL-8 mediated neutrophil chemotaxis” value came out at 12 nM in assay [3] and 10 nM in assay [1].

B4: 6G4V11N35A Fab (Fab, V domains shown)
VH: B1 VH
VL: B1 VL with N35A
As for B4, in assay [3], the “IC50, IL-8 mediated PMN chemotaxis” value turned out to be 0.8 nM. The “average IC50, human IL-8 mediated neutrophil chemotaxis” value in assay [3] was determined as 2.7 nM. Also, the results for the “average IC50, IL-8 mediated neutrophil chemotaxis” value in assay [4] and in assay [2] were 5 nM and 1 nM, respectively.

B5: full length 6G4V11N35A IgG1 (antibody, V domains shown, not shown: a dimerising Fc or GST)
VH: B1 VH
VL: B1 VL with N35A
Take B5: the “IC50, IL-8 mediated human neutrophil chemotaxis” value in assay [3] and in assay [4] was 4 nM throughout.

B6: 6G4V11N35A F(ab')2 (GCN4 leucine zipper construct) (other)
light: DIQMTQSPSSLSASVGDRVTITCRSSQSLVHGIGATYLHWYQQKPGKAPKLLIYKVSNRFSGVPSRFSGSGSGTDFTLTISSLQPEDFATYYCSQSTHVPLTFGQGTKVEIKRTVAAPSVFIFPPSDEQLKSGTASVVCLLNNFYPREAKVQWKVDNALQSGNSQESVTEQDSKDSTYSLSSTLTLSKADYEKHKVYACEVTHQGLSSPVTKSFNRGEC
heavy: not shown
With B6, the “average IC50, human IL-8 mediated neutrophil chemotaxis” value in assay [3] turned out to be 1.5 nM. Besides, the “average IC50, IL-8 mediated neutrophil chemotaxis” value in assay [4] stood at 4 nM; in assay [2], 1 nM.
